± gives the uncertainty stated by the source.
Test: amyloid nucleation score (Sup35N fusion, yeast selection) (log enrichment); library NNK1; higher = more nucleation; inactive = no reads after selection
How it was run: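 Peptides of 20 random codons fused to Sup35N were expressed in psi-negative yeast, induced 24 hours with 100 μM copper sulfate, then grown 7 days at 30°C on medium lacking adenine and uracil. Input and output plasmid inserts were Illumina-sequenced. Nucleation score is the DiMSum log enrichment of output over input reads, centred on the mode score of non-aggregating sequences, excluding sequences with under 100 input reads. Random libraries had three technical output replicates.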

| Substance | amyloid nucleation score |
| --- | --- |
| VRNMVFSSGRQLYMWDKLLK | 1.82 ± 0.66 |
| VRQNNGQMFFYWSWFIGNNP | 8.12 ± 0.063 |
| VRSDAVKEARISFCLRSKRF | 0.423 ± 1.4 |
| VRSFDDLRVNVSRSRCAMAQ | -0.906 ± 0.71 |
| VRSFLPMYMF | -0.376 ± 1.7 |
| VRSGDCYRSNSKSVFVMAIR | 0.617 ± 0.49 |
| VRSRLLQNLSDIPNQPIRWD | -0.105 ± 0.33 |
| VSAVDMMYHLLHRILGIIAC | 1.48 ± 0.55 |
| VSCCSNLVY | 0.144 ± 0.26 |
| VSCIV | 0.198 ± 0.58 |
| VSFSCLMSPE | 0.126 ± 0.32 |
| VSFYGGFGKK | -0.116 ± 0.64 |
| VSITRVGTFIRYLFCIARCW | -0.866 ± 0.9 |
| VSKSFVSQARLFYIQGDHCL | 1.42 ± 0.73 |
| VSMHYYAGTYSLNNSLV | -0.819 ± 1.1 |
| VSNSWAWPFRRNCGSECWFT | 0.228 ± 0.33 |
| VSRTLAWLGMSRLNGSYGVC | -0.197 ± 0.41 |
| VSRWHQCADPPRCGHRCIWA | 0.299 ± 0.51 |
| VSSGHLA | 0.032 ± 0.42 |
| VSSRITPS | 1.11 ± 0.39 |
| VSSVGKMPDALRVKAKWIFM | 0.141 ± 0.29 |
| VSSVGVDMMYLTTRGGCHSI | inactive |

| Substance | amyloid nucleation score |
| --- | --- |
| VSVGVILCSVRNKVNRGMDD | inactive |
| VSVMFYPFVFHWYGCLLTSA | 2.96 ± 0.12 |
| VSVNTVFH | 0.36 ± 0.44 |
| VSVTVLGRWR | 3.55 ± 0.19 |
| VSWYSSVIKL | inactive |
| VTGHV | -0.019 ± 0.49 |
| VTGKTLTLIEFFIHSQPLSR | 0.217 ± 0.32 |
| VTIAHNGNLSCRLYTYVQVR | 0.515 ± 0.57 |
| VTLKVFCIVEV | 0.314 ± 0.44 |
| VTMLRSFMHELHSGLKKDLK | 2.06 ± 0.11 |
| VTMVGRSLKLLMTYETFNTW | -0.21 ± 0.24 |
| VTNFNESLGKFSRNTLLRS | -0.713 ± 1.1 |
| VTNVSLDCGALCSCELCKKS | 7.155 ± 0.063 |
| VTRDMCGYLVCFWQYAG | 7.728 ± 0.045 |
| VTRFSAGTITVLTRDWRANC | -0.486 ± 1.6 |
| VTRTSYWGVFWSHSWRTWM | inactive |
| VTSSFWFFNDADSRQ | 3.24 ± 0.1 |
| VTTRLPIYRVKF | 0.228 ± 0.37 |
| VVAFYL | 1.91 ± 0.37 |
| VVDMTVGFENARCGMREVWT | -0.328 ± 1.3 |
| VVEARWNKAMHTNFLNVRES | 0.601 ± 0.65 |
| VVGELLGGTNRFGKRVSSMA | -0.057 ± 0.26 |

| Substance | amyloid nucleation score |
| --- | --- |
| VVGRTEEEHLQHPSWCMCAL | 0.128 ± 1 |
| VVLWLVDFPSPCPELKNLHF | inactive |
| VVRFCYTEEVRVFNQASLRE | 0.134 ± 0.5 |
| VVSLGNSSDYCHWKLILPTV | 0.151 ± 0.4 |
| VVSYSHAIVRLVLSCDMGRC | 0.441 ± 0.47 |
| VVVFSNYNFVGKCIHVNSEL | 7.351 ± 0.07 |
| VVVSNTLECSTSRVNRKVRT | -0.97 ± 0.72 |
| VWGINILMSFPIV | 5.674 ± 0.053 |
| VWMYMHAFCYSTGRRKAMPG | -1.76 ± 0.77 |
| VWRKTLRWPLGPWAGRS | -1.11 ± 0.46 |
| VWSAMDKALLDSGDGSPMG | 0.138 ± 0.36 |
| VWTDGGSYFRDLNRICGV | 3.74 ± 0.084 |
| VWYFISTYCWDRPKVILSGV | -1.39 ± 1.9 |
| VYACLSHSVRV | 1.05 ± 0.97 |
| VYAYTQLKQGRRHEQGTWS | inactive |
| VYFIVVVKGRSGLFMLSFGD | -0.997 ± 1.4 |
| VYFYVQPNGFMEIGASMIAA | -0.431 ± 1.4 |
| VYHVTWRLPF | 3.4 ± 0.12 |
| VYINVYHYWRFSKKYVGKLL | 0.318 ± 0.17 |
| VYKRFSTTMCLMTSSEWVDS | 2.45 ± 0.068 |

— the supplement of paper PMC12042874
